Literature values in patent US20190262496A1, “Compositions and Methods for Collagen-Based Sutures and Antibacterial Coatings” (UNIVERSITY HOSPITALS CLEVELAND MEDICAL CENTER, priority 2016, published 2019).

Details: in vivo

PDGF-BB: platelet derived growth factor-BB
half-life of the growth factor: a few minutes
